Measurements published in patent US10689423B2, “CTLA4-binding protein peptide-linker masks” (City of Hope, priority 2015, dated 2020).

Columns and labels:
CTLA-4 = assay: Size-exclusion chromatography analysis of CTLA-4 binding to mLcn2-Fc constructs
[1] = test system: human CTLA4-Fc on Tni insect cells; assay: Flow cytometry of Tni insect cells transiently expressing human CTLA4-Fc; assay type: cell-based; settings: Alexa Fluor-647 conjugated variants
Description: FIG. 10C: Flow cytometry analysis of Tni insect cells induced to transiently express human CTLA4-Fc. Cells were stained with Alexa Fluor-647 conjugated mLcn2-Fc variants and gated for Forward scatter/Side scatter, DAPI^−, singlet size (pulse width), and APC. Uninfected cells stained with mLcn2-Fc are shown in grey as a negative control.

[2] = test system: CD4/CD8 negative cells in the spleen; assay: In vivo binding of mLcn2 constructs in the spleen; design: species or system mice; settings: not shown; potentially due to FcR binding
Protocol: (§1) FIG. 9: Biodistribution of mLcn2-Fc constructs in vivo. (A-C) Naïve mice were injected i.v. with 100 μg of indicated mLcn2-Fc construct and tissue samples were collected 48 hr. post-dose. Cryosections were stained for CD4 or CD8 (medium gray) and human IgG (light gray) from the thymus (A), spleen (B), and pituitary gland (C, IgG only). (D) Melanoma-bearing mice were injected as above and tumor samples were collected 72 hr. post-dose. 4′,6-diamidino-2-phenylindole (DAPI) nuclear staining shown in dark gray.
FIG. 16: Naïve mice were injected i.v. with 100 μg of indicated mtLCN2-Fc construct and tissue samples were collected 48 hr. post-dose. Cryosections were stained for CD4 or CD8 (medium gray) and human IgG (light gray) from the spleen.
(§2) In these experiments constructs were injected i.v. into C57/B16 mice bearing B16 melanomas. Three days after injection, tumor and tissue samples were collected and doublestained using antibodies recognizing either CD4 or CD8 and mLcn2 (e.g. human IgG-Fc). Membranes of both intratumoral CD4+ and CD8+ T cells were decorated with mLcn2 which was not detected on other cell types.

pituicytes = assay: In vivo binding of mLcn2 variants to cells within the pituitary gland; settings: naïve mice, i.v. 100 μg, 48 hr post-dose, human IgG staining
Protocol: FIG. 5: Binding of CTLA-4 antagonist mLcn2 variants to cells within the pituitary gland.
as §1
FIG. 18: Naïve mice were injected i.v. with 100 μg of indicated mLcn2-Fc construct and tissue samples were collected 48 hr. post-dose. Cryosections were stained for human IgG (light gray).
as §2

[3] = test system: tumor-infiltrating lymphocytes (TILs) in B16 tumor tissues; assay: In vivo detection of mLcn2 variants in B16 tumor tissues (IHC); settings: i.v. 100 μg, melanoma-bearing mice, tumor samples 72 hr post-dose; listed as unmasked (MMP9-pretreated) mLcn2
Protocol: FIG. 4: In vivo detection of mLcn2 variants (CTLA-4 binding protein variants) in B16 tumor tissues.
as §1
FIG. 17: Melanoma-bearing mice were injected i.v. with 100 μg of indicated mLcn2-Fc construct and tumor samples were collected 72 hr. post-dose. Cryosections were stained for CD4 or CD8 (medium gray) and human IgG (light gray). […] 4′,6-diamidino-2-phenylindole (DAPI) nuclear staining shown in dark gray.
as §2

CTLA-4-Fc = assay: SPR kinetics of monomeric mLCN2 and dimeric mLCN2-Fc on immobilized CTLA-4-Fc; assay type: binding; settings: dimeric CTLA-4-Fc immobilized at medium density on CM5 chip
Sequence of CTLA-4-Fc (P16410 36-161 limits assumed): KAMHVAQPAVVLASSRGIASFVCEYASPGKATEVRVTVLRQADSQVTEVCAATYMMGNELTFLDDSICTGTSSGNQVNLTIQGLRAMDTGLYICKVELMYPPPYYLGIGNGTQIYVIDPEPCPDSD
Protocol: FIG. 10A: SPR analysis. Dimeric CTLA-4-Fc was immobilized at medium density to a CM5 chip. A range of 3-1000 nM monomeric mLCN2 (top) and 3-300 nM dimeric mLCN2-Fc (bottom) analytes were used for kinetics analyses. […] Concentration of analytes is 1000; 300; 30; and 3 nM.

[4] = test system: murine, primate and human CTLA-4; assay: CTLA-4 species cross-reactivity of mLcn2; assay type: binding

Sequence of human CTLA4-Fc on Tni insect cells (P16410 36-161 limits assumed): as above
Sequence of CTLA-4 (P16410 36-161 limits assumed): as above

B1: Unmasked mLcn2-Fc: masked mLcn2-Fc treated with MMP9, mask released (protein)
chain: QDSTSDLIPAPPLSKVPLQQNFQDNQFHGKWYVVGLAGNRILRDDQHPMNMYATIYELKEDKSYNVTSVISSHKKCEYTIATFVPGSQPGEFTLGNIKSYGDKTSYLVRVVSTDYNQYAVVFFKLAEDNAEFFAITIYGRTKELASELKENFIRFSKSLGLPENHIVFPVPIDQCIDG
modifications: left off: small tags and cut ends; a dimerising Fc or GST
notes: masked mLcn2-Fc treated with MMP9, mask released
CTLA-4 binding by SEC (CTLA-4; FIG. 3B): binding of CTLA-4 only to unmasked mLcn2-Fc constructs
SEC elution volume of construct incubated with CTLA-4 (CTLA-4; Superdex 200, apo CTLA-4 13.0 mL, apo constructs ~12.7 mL): 11.3 mL
binding to CTLA4-Fc expressing Tni cells [1]: showed binding to cells
binding in the spleen [2]: bound to CD4/CD8 negative cells in the spleen
binding to pituitary gland cells (pituicytes): bound equally well to pituicytes
staining of CD4 or CD8 TILs in tumor [3]: membrane staining of tumor-infiltrating lymphocytes (TILs)

B2: mLcn2-Fc: mLcn2 fused to IgG1 Fc without a mask fused to the N-terminus (positive control) (protein)
chain: B1 chain
modifications: left off: a dimerising Fc or GST
binding to CTLA4-Fc expressing Tni cells [1]: showed binding to cells
binding to pituitary gland cells (pituicytes): bound equally well to pituicytes
ka (CTLA-4-Fc): 1.0 E4 M^−1 s^−1
kd (CTLA-4-Fc): could not be determined as it was beyond the limitations of the instrument

B3: mLCN2: modified lipocalin2 used as a CTLA-4 antagonist, SEQ ID NO:34 (protein, listed as Homo sapiens)
chain: B1 chain
CTLA-4 binding across species [4]: binds to murine, primate and human CTLA-4
binding to pituitary gland cells (pituicytes): reactivity with non-immune cells in the pituitary glands
ka (CTLA-4-Fc): 3.6 E4 M^−1 s^−1
kd (CTLA-4-Fc): 2.0 E-4 s^−1
